In this data set the test system is K562 CRISPRi cells. Briefly: Constant region variant library pooled growth screen, K562. The class given is cell-based, human. As to conditions: sgRNA constant region variants, un-modified constant region cr995. An outline of the steps: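 Cells were selected with puromycin for 2 days and then kept in RPMI-1640 spinner cultures, with duplicates handled separately. Targeting sequences comprised 3 sgRNAs per essential gene for 10 genes plus six non-targeting controls. Activities were normalized against pairing with the unmodified scaffold.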

[1] abbreviates: relative to the original, CRISPRi.
Where [2] appears, read: activity relative to the original.

Numbering of substitutions follows the chain as printed.

B1: cr728 (nucleic acid)
guide: GTTTAAGAGCTAAGCTGGAAACAGCATAGCAAGTTTAAATAAGGCTAGTCCGTTATCGACTTGACAAAGTGGCACCGAGTCGGTGCT
modifications: listed as DNA, chemistry not fully specified
B1 showed a Mean relative activity under setting [1] of 0.4155.

B2: cr398 (nucleic acid)
guide: B1 guide with A37G, G58A, C65A
modifications: listed as DNA, chemistry not fully specified
In the case of B2, under setting [1], the Mean relative activity was 0.3667.

B3: cr794 (nucleic acid)
guide: B1 guide with G58A, C65A, G72C, C76G, G82C, C86G
modifications: listed as DNA, chemistry not fully specified
B3 came in with a Mean relative activity under setting [1] of 0.411.

B4: cr756 (nucleic acid)
guide: B1 guide with C45T, G48A, G58A, C65A, C75A, G83T
modifications: listed as DNA, chemistry not fully specified
Molecule B4 returned a Mean relative activity under setting [2] of 1.041.

B5: cr088 (nucleic acid)
guide: B1 guide with G1A, A6G, G58A, C65A
modifications: listed as DNA, chemistry not fully specified
Take B5: the Mean relative activity under setting [1] is 0.3745.

B6: cr182 (nucleic acid)
guide: B1 guide with G33T, G58A, C65A
modifications: listed as DNA, chemistry not fully specified
Turning to B6, the Mean relative activity under setting [1] was 0.3559.

B7: cr924 (nucleic acid)
guide: B1 guide with G43A, C51T, G58A, C65A, A74G, T84C
modifications: listed as DNA, chemistry not fully specified
B7 displayed a Mean relative activity under setting [1] of 0.3638.

B8: cr471 (nucleic acid)
guide: B1 guide with G58A, C65A, G72T, C76A, G77C, C81G, G82T, C86A
modifications: listed as DNA, chemistry not fully specified
Under setting [1], B8 had a Mean relative activity of 0.3625.

B9: cr545 (nucleic acid)
guide: B1 guide with G29A, T54C, C57A, G58A, C65A
modifications: listed as DNA, chemistry not fully specified
On to B9, for which the Mean relative activity under setting [1] is listed as 0.3936.

B10: cr296 (nucleic acid)
guide: B1 guide with G58A, C65A, C73T, C76G, G77C, C81G, G82C, G85A
modifications: listed as DNA, chemistry not fully specified
Molecule B10 had a Mean relative activity under setting [1] of 0.3911.

B11: cr200 (nucleic acid)
guide: B1 guide with G33A, G58A, C65A, T87C
modifications: listed as DNA, chemistry not fully specified
Under setting [1], B11 yielded a Mean relative activity of 0.3799.

B12: cr404 (nucleic acid)
guide: B1 guide with G58C, C65T
modifications: listed as DNA, chemistry not fully specified
Turning to B12, the Mean relative activity under setting [1] is listed as 0.3784.

B13: cr523 (nucleic acid)
guide: B1 guide with T34C, G58A, C65A, G72T, C86A
modifications: listed as DNA, chemistry not fully specified
Under setting [1], B13 displayed a Mean relative activity of 0.3746.

B14: cr569 (nucleic acid)
guide: B1 guide with A28G, A47C, C57G, G58A, C65A
modifications: listed as DNA, chemistry not fully specified
With B14, under setting [1], the Mean relative activity turned out to be 0.3992.

B15: cr813 (nucleic acid)
guide: B1 guide with G58T, C65A
modifications: listed as DNA, chemistry not fully specified
The molecule B15 showed a Mean relative activity under setting [1] of 0.3803.

B16: cr775 (nucleic acid)
guide: B1 guide with A31G, G33T, G58A, C65A
modifications: listed as DNA, chemistry not fully specified
Molecule B16 gave a Mean relative activity under setting [1] of 0.4052.

B17: cr527 (nucleic acid)
guide: B1 guide with T35G, G58A, C65A
modifications: listed as DNA, chemistry not fully specified
B17: under setting [1], the Mean relative activity is 0.3802.

B18: cr196 (nucleic acid)
guide: B1 guide with G58A, C65A, C75G, G77C, C81G, G83C
modifications: listed as DNA, chemistry not fully specified
For B18, under setting [1], the Mean relative activity came out at 0.3626.

B19: cr356 (nucleic acid)
guide: B1 guide with G58A, A59C, C65A, T70G, G72A, C86T
modifications: listed as DNA, chemistry not fully specified
As for B19, the Mean relative activity under setting [2] turned out to be 1.042.

B20: cr127 (nucleic acid)
guide: B1 guide with A42T, G58A, C65G, G79C
modifications: listed as DNA, chemistry not fully specified
Consider B20, for which, under setting [1], the Mean relative activity stood at 0.3659.

B21: cr755 (nucleic acid)
guide: B1 guide with T34C, G58A, C65A, A74T, T84A
modifications: listed as DNA, chemistry not fully specified
In turn, B21 came in with a Mean relative activity under setting [1] of 0.3814.

B22: cr252 (nucleic acid)
guide: B1 guide with G52A, G58A, C65A
modifications: listed as DNA, chemistry not fully specified
Molecule B22 displayed a Mean relative activity under setting [1] of 0.3581.

B23: cr966 (nucleic acid)
guide: B1 guide with G58A, C60G, C65A, G69C, C75T, C76G, G82C, G83A
modifications: listed as DNA, chemistry not fully specified
On to B23, for which, under setting [1], the Mean relative activity is 0.3699.

B24: cr473 (nucleic acid)
guide: B1 guide with T53A, C57A, G58A, A64C, C65A
modifications: listed as DNA, chemistry not fully specified
Consider B24, for which the Mean relative activity under setting [1] is reported as 0.3892.

B25: cr315 (nucleic acid)
guide: B1 guide with G43A, C51T, G58A, T62G, C65A, A67C, A74C, T84G
modifications: listed as DNA, chemistry not fully specified
Under setting [1], B25 had a Mean relative activity of 0.3642.

B26: cr249 (nucleic acid)
guide: B1 guide with T54G, C57T, G58A, C65A, T80A
modifications: listed as DNA, chemistry not fully specified
Regarding B26, under setting [1], the Mean relative activity came to 0.3886.

B27: cr343 (nucleic acid)
guide: B1 guide with G58A, A59T, C60G, T61A, T62A, C65A, A68T, T70A
modifications: listed as DNA, chemistry not fully specified
The molecule B27 gave a Mean relative activity under setting [1] of 0.3733.

B28: cr459 (nucleic acid)
guide: B1 guide with A31G, G58T, C65A
modifications: listed as DNA, chemistry not fully specified
On to B28, for which the Mean relative activity under setting [1] amounted to 0.3837.

B29: cr003 (nucleic acid)
guide: B1 guide with G1T, G58A, C65A
modifications: listed as DNA, chemistry not fully specified
For the molecule B29, the Mean relative activity under setting [1] stood at 0.3678.

B30: cr192 (nucleic acid)
guide: B1 guide with G58A, C65A, A74C, G77C, C81G, T84G
modifications: listed as DNA, chemistry not fully specified
In the case of B30, the Mean relative activity under setting [1] amounted to 0.3609.

B31: cr799 (nucleic acid)
guide: B1 guide with C51T, G58A, C65A
modifications: listed as DNA, chemistry not fully specified
The molecule B31 displayed a Mean relative activity under setting [1] of 0.4031.

B32: cr126 (nucleic acid)
guide: B1 guide with G33A, A47C, G58A, G63T, C65A
modifications: listed as DNA, chemistry not fully specified
In the case of B32, the Mean relative activity under setting [1] is given as 0.4034.

B33: cr201 (nucleic acid)
guide: B1 guide with G43A, C51T, G58A, C65A
modifications: listed as DNA, chemistry not fully specified
With B33, the Mean relative activity under setting [1] came to 0.3731.

B34: cr351 (nucleic acid)
guide: B1 guide with A47C, C57A, G58A, G63A, C65A
modifications: listed as DNA, chemistry not fully specified
Take B34: the Mean relative activity under setting [1] was determined as 0.3557.

B35: cr895 (nucleic acid)
guide: B1 guide with G33T, G58A, A64T, C65A
modifications: listed as DNA, chemistry not fully specified
For B35, the Mean relative activity under setting [1] turned out to be 0.3709.

B36: cr432 (nucleic acid)
guide: B1 guide with T34C, G58A, C60G, C65A, G69C
modifications: listed as DNA, chemistry not fully specified
In the case of B36, the Mean relative activity under setting [1] is listed as 0.3923.

B37: cr804 (nucleic acid)
guide: B1 guide with T34C, G58A, C65A, G72A, C86T
modifications: listed as DNA, chemistry not fully specified
B37 yielded a Mean relative activity under setting [1] of 0.4025.

B38: cr856 (nucleic acid)
guide: B1 guide with C45A, G48T, G58A, C60A, C65A, G69T, A74T, T84A
modifications: listed as DNA, chemistry not fully specified
B38 registered a Mean relative activity under setting [1] of 0.3826.

B39: cr687 (nucleic acid)
guide: B1 guide with G58A, C65A, C76T
modifications: listed as DNA, chemistry not fully specified
On to B39, for which the Mean relative activity under setting [2] stood at 1.042.

For the origin of these results see patent US20220259593A1, “CONTROL OF MAMMALIAN GENE DOSAGE USING CRISPR” (The Regents of the University of California, priority 2019, published 2022).
